Among the data in patent US20030200555A1 are production of Aβ in the HEK293T cells (times the level of wild type APP695) values, retold here.

The assay concerns the target APP695-derived polypeptide (SEQ.ID.NO.: 28) having the modified sequence NLDV (SEQ.ID.NO.: 7) (human) (UniProt P05067). As to the kind of experiment: cell-based or functional assay.

In turn, “β-secretase (of the HEK293T cells in which the APP β-site mutants were expressed) (from UniProt P56817 46-501) (enzyme)” yielded a production of Aβ in the HEK293T cells (times the level of wild type APP695) of 3.
